# According to patent US20240010722A1:
# Changes are numbered by the printed parent chain. Values joined by “and” are separate entries in the source; they are usually repeats but may differ in a detail not shown here. Equal entries are not always repeated.
# B1: MIAB198 (antibody, V domains shown)
# VH: EVQLLESGGGLVQPGGSLRLSCAASGFTFSDFWMHWVRQAPGKGLEWISYISGDSGYTNYADSVKGRFTISRDNSKNTLYLQMNSLRAEDTAVYYCARDRPYYYIMDVWGKGTTVTVSS
# VL: DIQMTQSPSSLSASVGDRVTITCRASQSVSRSLAWYQQKPGKAPKLLIYAASSLQSGVPSRFSGSGSGTDFTLTISSLQPEDFATYYCQQYKSYPVTFGQGTKVEIK
# B2: MIAB128 (antibody, V domains shown)
# VH: B1 VH with Y102N, I105Y
# VL: B1 VL
# B3: MIAB150 (antibody, V domains shown)
# VH: B1 VH with I105Y
# VL: B1 VL with V29I, S32Y
# B4: MIAB152 (antibody, V domains shown)
# VH: B1 VH with I105Y
# VL: B1 VL with R31S, S32Y
# B5: MIAB154 (antibody, V domains shown)
# VH: B1 VH with I105Y
# VL: B1 VL with S32Y, A34N
# B6: MIAB155 (antibody, V domains shown)
# VH: B1 VH with I105Y
# VL: B1 VL with V29I, R31S, A34N
# B7: MIAB156 (antibody, V domains shown)
# VH: B1 VH with I105Y
# VL: B1 VL with V29I, S32Y, A34N
# B8: MIAB157 (antibody, V domains shown)
# VH: B1 VH with I105Y
# VL: B1 VL with V29I, R31S, S32Y
# B9: MIAB158 (antibody, V domains shown)
# VH: B1 VH with I105Y
# VL: B1 VL with R31S, S32Y, A34N
# B10: MIAB129 (antibody, V domains shown)
# VH: B1 VH with Y102G, I105Y
# VL: B1 VL
# B11: MIAB130 (antibody, V domains shown)
# VH: B1 VH with I105Q
# VL: B1 VL
# B12: MIAB159 (antibody, V domains shown)
# VH: B1 VH with D54E, I105Y
# VL: B1 VL
# B13: MIAB160 (antibody, V domains shown)
# VH: B1 VH with N59Q, I105Y
# VL: B1 VL
# B14: MIAB161 (antibody, V domains shown)
# VH: B1 VH with N74Q, I105Y
# VL: B1 VL
# B15: MIAB162 (antibody, V domains shown)
# VH: B1 VH with I105Y
# VL: B1 VL with A34G
# B16: MIAB163 (antibody, V domains shown)
# VH: B1 VH with I105Y
# VL: B1 VL with A34D
# B17: MIAB131 (antibody, V domains shown)
# VH: B1 VH with I105G
# VL: B1 VL
# B18: MIAB164 (antibody, V domains shown)
# VH: B1 VH with I105Y
# VL: B1 VL with A34T
# B19: MIAB165 (antibody, V domains shown)
# VH: B1 VH with I105Y
# VL: B1 VL with A34S
# B20: MIAB166 (antibody, V domains shown)
# VH: B1 VH with I105Y
# VL: B1 VL with A34E
# B21: MIAB167 (antibody, V domains shown)
# VH: B1 VH with I105Y
# VL: B1 VL with A34K
# B22: MIAB168 (antibody, V domains shown)
# VH: B1 VH with I105Y
# VL: B1 VL with A34L
# B23: MIAB172 (antibody, V domains shown)
# VH: B1 VH with Y102T, I105Y
# VL: B1 VL
# B24: MIAB134 (antibody, V domains shown)
# VH: B1 VH with D31A, I105Y
# VL: B1 VL
# Target: Insulin
# Test: polyreactivity ELISA on insulin coat, 100 nM
# Sequence of Insulin (P01308 25-54, chain 1 of 2): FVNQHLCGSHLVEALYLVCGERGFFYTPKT
# Sequence of Insulin (P01308 90-110, chain 2 of 2): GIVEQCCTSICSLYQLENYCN
row,Binder,Insulin polyreactivity score
1,B1,3.19 and 3.63
2,B2,2.62
3,B3,3.74
4,B4,2.83
5,B5,61.9
6,B6,1.99
7,B7,45.2
8,B8,3.99
9,B9,2.67
10,B10,2.43
11,B11,3.26
12,B12,4.66
13,B13,17.8
14,B14,5
15,B15,5.31
16,B16,18.5
17,B17,8
18,B18,7.07
19,B19,9.53
20,B20,7.89
21,B21,29.6
22,B22,8.35
23,B23,3.79
24,B24,25.5
